# Data from patent US20260167710A1 (GlaxoSmithKline, published 2026).
# T1: human IL-33 (human, Biotinylated in Example 2; the site is not stated.)
# T1 chain: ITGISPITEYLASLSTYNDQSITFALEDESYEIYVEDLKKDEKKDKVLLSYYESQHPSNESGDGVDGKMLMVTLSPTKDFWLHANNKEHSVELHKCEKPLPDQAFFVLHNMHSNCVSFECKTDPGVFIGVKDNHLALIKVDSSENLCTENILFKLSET
# T2: IL-33 99-270 (UniProt O95760 99-270)
# T2 sequence (looked up): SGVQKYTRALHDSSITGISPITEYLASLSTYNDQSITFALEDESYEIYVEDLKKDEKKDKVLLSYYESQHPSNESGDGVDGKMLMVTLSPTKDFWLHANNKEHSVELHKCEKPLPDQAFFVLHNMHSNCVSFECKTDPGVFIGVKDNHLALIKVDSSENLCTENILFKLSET
# T3: Mature IL-33 (IL-33 113-270) (UniProt O95760 113-270)
# T3 sequence (looked up): T1 chain
# T4: IL-33 95-270 (UniProt O95760 95-270)
# T4 sequence (looked up): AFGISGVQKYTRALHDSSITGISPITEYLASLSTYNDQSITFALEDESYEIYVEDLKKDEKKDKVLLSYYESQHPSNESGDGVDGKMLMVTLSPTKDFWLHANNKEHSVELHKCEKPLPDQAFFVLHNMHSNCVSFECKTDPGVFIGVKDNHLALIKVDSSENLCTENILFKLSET
# T5: IL-33 109-270 (UniProt O95760 109-270)
# T5 sequence (looked up): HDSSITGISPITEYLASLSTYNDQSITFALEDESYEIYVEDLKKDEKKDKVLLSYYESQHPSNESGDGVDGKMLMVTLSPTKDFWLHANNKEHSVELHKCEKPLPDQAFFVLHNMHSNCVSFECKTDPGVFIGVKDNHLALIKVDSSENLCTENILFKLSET
# B1: 22A06-458 (antibody, human IgG1, kappa)
# heavy: QVQLVQSGAEVKKPGASVKVSCKASGYTFISYGMHWVRQAPGQGLEWMGEINPHGGSTSYAQKFKGRVTMTRDTSTSTVYMELSSLRSEDTAVYYCARPSAAYSHYLGIDLWGRGTLVTVSSASTKGPSVFPLAPSSKSTSGGTAALGCLVKDYFPEPVTVSWNSGALTSGVHTFPAVLQSSGLYSLSSVVTVPSSSLGTQTYICNVNHKPSNTKVDKKVEPKSCDKTHTCPPCPAPELLGGPSVFLFPPKPKDTLYITREPEVTCVVVDVSHEDPEVKFNWYVDGVEVHNAKTKPREEQYNSTYRVVSVLTVLHQDWLNGKEYKCKVSNKALPAPIEKTISKAKGQPREPQVYTLPPSRDELTKNQVSLTCLVKGFYPSDIAVEWESNGQPENNYKTTPPVLDSDGSFFLYSKLTVDKSRWQQGNVFSCSVMHEALHNHYTQKSLSLSPGK
# light: DIQMTQSPSSVSASVGDRVTITCRASQGISSWLAWYQQKPGKAPKLLIYAASRLQSGVPSRFSGSGSGTDFTLTISSLQPEDFATYYCQQANVFPLTFGGGTKVEIKRTVAAPSVFIFPPSDEQLKSGTASVVCLLNNFYPREAKVQWKVDNALQSGNSQESVTEQDSKDSTYSLSSTLTLSKADYEKHKVYACEVTHQGLSSPVTKSFNRGEC
# How the values were obtained:
# human IL-33 [1] = target: T1, human IL-33; assay: cell-based or functional assay
# [2] = target: T6, cynomolgus recombinant neonatal receptor (FcRn) (cynomolgus monkey, UniProt Q8SPV9 24-297; Q8SPW0 21-119); assay: SPR (ProteOn XPR36), antibody captured by protein L, FcRn as analyte, equilibrium fit, pH 7.4, 25 C
# T6 construct: extracellular domain; beta-2-microglobulin is not mentioned; also called cyno FcRn; cynomolgus monkey FcRn
# [3] = target: T7, human recombinant neonatal receptor (FcRn) (human, UniProt P55899 24-297; P61769 21-119); assay: as above
# T7 construct: also called human FcRn; human recombinant soluble FcRn
# IL-33 99-270 = target: T2, IL-33 99-270; assay: cell-based or functional assay
# [4] = target: T3, Mature IL-33 (IL-33 113-270); assay: cell-based or functional assay
# spIL-33 = assay: cell-based or functional assay
# IL-33 95-270 = target: T4, IL-33 95-270; assay: cell-based or functional assay
# IL-33 109-270 = target: T5, IL-33 109-270; assay: cell-based or functional assay
# human IL-33 [5] = target: T1, human IL-33; assay: cell-based or functional assay
# T7 sequence (P55899 24-297 limits assumed, chain 1 of 2): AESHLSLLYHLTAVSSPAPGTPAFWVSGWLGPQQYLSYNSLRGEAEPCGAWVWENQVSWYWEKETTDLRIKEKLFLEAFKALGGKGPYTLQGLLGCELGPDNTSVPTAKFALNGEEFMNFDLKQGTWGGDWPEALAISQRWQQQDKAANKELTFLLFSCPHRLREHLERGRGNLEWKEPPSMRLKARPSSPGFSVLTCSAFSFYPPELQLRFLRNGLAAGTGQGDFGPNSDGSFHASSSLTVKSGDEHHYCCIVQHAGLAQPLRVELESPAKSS
# T7 sequence (P61769 21-119 limits assumed, chain 2 of 2): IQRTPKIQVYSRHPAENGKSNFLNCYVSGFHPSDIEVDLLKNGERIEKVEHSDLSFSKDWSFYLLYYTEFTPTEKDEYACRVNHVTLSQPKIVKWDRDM
# T6 sequence (Q8SPV9 24-297 limits assumed, chain 1 of 2): as the sequence (P55899 24-297 limits assumed, chain 1 of 2) above, with N39D, E44Q, G99S, S189G, S190N, L217M, S269T counted along it
# T6 sequence (Q8SPW0 21-119 limits assumed, chain 2 of 2): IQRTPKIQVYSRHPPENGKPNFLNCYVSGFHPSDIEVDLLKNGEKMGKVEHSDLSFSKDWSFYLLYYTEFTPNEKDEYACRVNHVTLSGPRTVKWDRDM
binder,measurement,setting,value
B1,"IC50, inhibition of 100 ng/mL IL-33/IL-12 induced IFN-γ secretion from whole blood, pre-complexed, Mean",human IL-33 [1],3.9 nM
same,"IC50, inhibition of 100 ng/mL IL-33/IL-12 induced IFN-γ secretion from whole blood, pre-complexed, donor #91232",human IL-33 [1],2.79 nM
same,"IC50, inhibition of 100 ng/mL IL-33/IL-12 induced IFN-γ secretion from whole blood, pre-complexed, donor #91845",human IL-33 [1],5.75 nM
same,"IC50, inhibition of 100 ng/mL IL-33/IL-12 induced IFN-γ secretion from whole blood, pre-complexed, donor #91865",human IL-33 [1],0.88 nM
same,"IC50, inhibition of 100 ng/mL IL-33/IL-12 induced IFN-γ secretion from whole blood, pre-complexed, donor #92023",human IL-33 [1],3.43 nM
same,"IC50, inhibition of 100 ng/mL IL-33/IL-12 induced IFN-γ secretion from whole blood, pre-complexed, donor #92186",human IL-33 [1],3.01 nM
same,"IC50, inhibition of 100 ng/mL IL-33/IL-12 induced IFN-γ secretion from whole blood, pre-complexed, donor #92187",human IL-33 [1],4.75 nM
same,"IC50, inhibition of 100 ng/mL IL-33/IL-12 induced IFN-γ secretion from whole blood, pre-complexed, donor #92257",human IL-33 [1],2.66 nM
same,"IC50, inhibition of 100 ng/mL IL-33/IL-12 induced IFN-γ secretion from whole blood, pre-complexed, donor #92258",human IL-33 [1],7.9 nM
same,"pIC50, inhibition of 100 ng/mL IL-33/IL-12 induced IFN-γ secretion from whole blood, pre-complexed, Mean",human IL-33 [1],8.48
same,"pIC50, inhibition of 100 ng/mL IL-33/IL-12 induced IFN-γ secretion from whole blood, pre-complexed, donor #91232",human IL-33 [1],8.55
same,"pIC50, inhibition of 100 ng/mL IL-33/IL-12 induced IFN-γ secretion from whole blood, pre-complexed, donor #91845",human IL-33 [1],8.24
same,"pIC50, inhibition of 100 ng/mL IL-33/IL-12 induced IFN-γ secretion from whole blood, pre-complexed, donor #91865",human IL-33 [1],9.05
same,"pIC50, inhibition of 100 ng/mL IL-33/IL-12 induced IFN-γ secretion from whole blood, pre-complexed, donor #92023",human IL-33 [1],8.46
same,"pIC50, inhibition of 100 ng/mL IL-33/IL-12 induced IFN-γ secretion from whole blood, pre-complexed, donor #92186",human IL-33 [1],8.52
same,"pIC50, inhibition of 100 ng/mL IL-33/IL-12 induced IFN-γ secretion from whole blood, pre-complexed, donor #92187",human IL-33 [1],8.32
same,"pIC50, inhibition of 100 ng/mL IL-33/IL-12 induced IFN-γ secretion from whole blood, pre-complexed, donor #92257",human IL-33 [1],8.58
same,"pIC50, inhibition of 100 ng/mL IL-33/IL-12 induced IFN-γ secretion from whole blood, pre-complexed, donor #92258",human IL-33 [1],8.1
same,Kd,[2],2560 nM
same,Kd,[3],1230 nM
same,"IC50, inhibition of 25 pM IL-33 isoform in HEK-Blue reporter assay",IL-33 99-270,436 pM
same,"IC50, inhibition of 25 pM IL-33 isoform in HEK-Blue reporter assay",[4],18.2 pM
same,"IC50, inhibition of 25 pM IL-33 isoform in HEK-Blue reporter assay",spIL-33,90.3 pM
same,"IC50, inhibition of 25 pM IL-33 isoform in HEK-Blue reporter assay",IL-33 95-270,162 pM
same,"IC50, inhibition of 25 pM IL-33 isoform in HEK-Blue reporter assay",IL-33 109-270,254 pM
same,"IC50, inhibition of IL-33 (125 pM) induced IFN-γ secretion from CD4+ T cells, pre-complexed, Mean",human IL-33 [5],675 pM
same,"IC50, inhibition of IL-33 (125 pM) induced IFN-γ secretion from CD4+ T cells, pre-complexed, N = 1",human IL-33 [5],1060 pM
same,"IC50, inhibition of IL-33 (125 pM) induced IFN-γ secretion from CD4+ T cells, pre-complexed, N = 2",human IL-33 [5],936 pM
same,"IC50, inhibition of IL-33 (125 pM) induced IFN-γ secretion from CD4+ T cells, pre-complexed, N = 3",human IL-33 [5],282 pM
same,"IC50, inhibition of IL-33 (125 pM) induced IFN-γ secretion from CD4+ T cells, pre-complexed, N = 4",human IL-33 [5],591 pM
same,"IC50, inhibition of IL-33 (125 pM) induced IFN-γ secretion from CD4+ T cells, pre-complexed, N = 5",human IL-33 [5],790 pM
same,"IC50, inhibition of IL-33 (125 pM) induced IFN-γ secretion from CD4+ T cells, pre-complexed, N = 6",human IL-33 [5],497 pM
same,"IC50, inhibition of IL-33 (125 pM) induced IFN-γ secretion from CD4+ T cells, pre-complexed, N = 7",human IL-33 [5],574 pM
same,"pIC50, inhibition of IL-33 (125 pM) induced IFN-γ secretion from CD4+ T cells, pre-complexed, Mean",human IL-33 [5],9.2
same,"pIC50, inhibition of IL-33 (125 pM) induced IFN-γ secretion from CD4+ T cells, pre-complexed, N = 1",human IL-33 [5],8.97
same,"pIC50, inhibition of IL-33 (125 pM) induced IFN-γ secretion from CD4+ T cells, pre-complexed, N = 2",human IL-33 [5],9.02
same,"pIC50, inhibition of IL-33 (125 pM) induced IFN-γ secretion from CD4+ T cells, pre-complexed, N = 3",human IL-33 [5],9.54
same,"pIC50, inhibition of IL-33 (125 pM) induced IFN-γ secretion from CD4+ T cells, pre-complexed, N = 4",human IL-33 [5],9.22
same,"pIC50, inhibition of IL-33 (125 pM) induced IFN-γ secretion from CD4+ T cells, pre-complexed, N = 5",human IL-33 [5],9.1
same,"pIC50, inhibition of IL-33 (125 pM) induced IFN-γ secretion from CD4+ T cells, pre-complexed, N = 6",human IL-33 [5],9.3
same,"pIC50, inhibition of IL-33 (125 pM) induced IFN-γ secretion from CD4+ T cells, pre-complexed, N = 7",human IL-33 [5],9.24
